Measured values as given in EP2182008A2 (ICOS Corporation, dated 2010).

B1: VCAM-1 domains 1 and 2 fused to human immunoglobulin Fc (Fc fusion, UniProt P19320 25-220, looked up)
chain: FKIETTPESRYLAQIGDSVSLTCSTTGCESPFFSWRTQIDSPLNGKVTNEGTTSTLTMNPVSFGNEHSYLCTATCESRKLEKGIQVEIYSFPKDPEIHLSGPLEAGKPITVKCSVADVYPFDRLEIDLLKGDHLMKSQEFLEDADRKSLETKSLEVTFTPVIEDIGKVLVCRAKLHIDEMDSVPTVRQAVKELQVY
notes: domain: domains 1 and 2; also called two domain form of VCAM-1; two domain VCAM-1 expression construct; not shown: human immunoglobulin Fc
B2: soluble ICAM-R/IgG1 fusion protein (Fc fusion, UniProt P32942 30-485, looked up)
chain: QEFLLRVEPQNPVLSAGGSLFVNCSTDCPSSEKIALETSLSKELVASGMGWAAFNLSNVTGNSRILCSVYCNGSQITGSSNITVYRLPERVELAPLPPWQPVGQNFTLRCQVEDGSPRTSLTVVLLRWEEELSRQPAVEEPAEVTATVLASRDDHGAPFSCRTELDMQPQGLGLFVNTSAPRQLRTFVLPVTPPRLVAPRFLEVETSWPVDCTLDGLFPASEAQVYLALGDQMLNATVMNHGDTLTATATATARADQEGAREIVCNVTLGGERREARENLTVFSFLGPIVNLSEPTAHEGSTVTVSCMAGARVQVTLDGVPAAAPGQPAQLQLNATESDDGRSFFCSATLEVDGEFLHRNSSVQLRVLYGPKIDRATCPQHLKWKDKTRHVLQCQARGNPYPELRCLKEGSSREVPVGIPFFVNVTHNGTYQCQASSSRGKYTLVVVMDIEAGSSH
notes: not shown: IgG1 portion
B3: soluble ICAM-1/IgG1 fusion protein (Fc fusion, UniProt P05362 28-480, looked up)
chain: QTSVSPSKVILPRGGSVLVTCSTSCDQPKLLGIETPLPKKELLLPGNNRKVYELSNVQEDSQPMCYSNCPDGQSTAKTFLTVYWTPERVELAPLPSWQPVGKNLTLRCQVEGGAPRANLTVVLLRGEKELKREPAVGEPAEVTTTVLVRRDHHGANFSCRTELDLRPQGLELFENTSAPYQLQTFVLPATPPQLVSPRVLEVDTQGTVVCSLDGLFPVSEAQVHLALGDQRLNPTVTYGNDSFSAKASVSVTAEDEGTQRLTCAVILGNQSQETLQTVTIYSFPAPNVILTKPEVSEGTEVTVKCEAHPRAKVTLNGVPAQPLGPRAQLLLKATPEDNGRSFSCSATLEVAGQLIHKNQTRELRVLYGPRLDERDCPGNWTWPENSQQTPMCQAWGNPLPELKCLKDGTFPLPIGESVTVTRDLEGTYLCRARSTQGEVTRKVTVNVLSPRYE
notes: also called ICAM-I/IgG; not shown: IgG1 portion
B4: E-selectin (immobilized) (ligand, UniProt P16581 22-556, looked up)
chain: WSYNTSTEAMTYDEASAYCQQRYTHLVAIQNKEEIEYLNSILSYSPSYYWIGIRKVNNVWVWVGTQKPLTEEAKNWAPGEPNNRQKDEDCVEIYIKREKDVGMWNDERCSKKKLALCYTAACTNTSCSGHGECVETINNYTCKCDPGFSGLKCEQIVNCTALESPEHGSLVCSHPLGNFSYNSSCSISCDRGYLPSSMETMQCMSSGEWSAPIPACNVVECDAVTNPANGFVECFQNPGSFPWNTTCTFDCEEGFELMGAQSLQCTSSGNWDNEKPTCKAVTCRAVRQPQNGSVRCSHSPAGEFTFKSSCNFTCEEGFMLQGPAQVECTTQGQWTQQIPVCEAFQCTALSNPERGYMNCLPSASGSFRYGSSCEFSCEQGFVLKGSKRLQCGPTGEWDNEKPTCEAVRCDAVHQPPKGLVRCAHSPIGEFTYKSSCAFSCEEGFELHGSTQLECTSQGQWTEEVPSCQVVKCSSLAVPGKINMSCSGEPVFGTVCKFACPEGWTLNGSAARTCGATGHWSGLLPTCEAPTESNIP
notes: Control adhesion molecule; also called E-selection
B5: VCAM-1/IgG1 fusion protein (seven extracellular immunoglobulin-like domains) (Fc fusion, UniProt P19320 25-698, looked up)
chain: FKIETTPESRYLAQIGDSVSLTCSTTGCESPFFSWRTQIDSPLNGKVTNEGTTSTLTMNPVSFGNEHSYLCTATCESRKLEKGIQVEIYSFPKDPEIHLSGPLEAGKPITVKCSVADVYPFDRLEIDLLKGDHLMKSQEFLEDADRKSLETKSLEVTFTPVIEDIGKVLVCRAKLHIDEMDSVPTVRQAVKELQVYISPKNTVISVNPSTKLQEGGSVTMTCSSEGLPAPEIFWSKKLDNGNLQHLSGNATLTLIAMRMEDSGIYVCEGVNLIGKNRKEVELIVQEKPFTVEISPGPRIAAQIGDSVMLTCSVMGCESPSFSWRTQIDSPLSGKVRSEGTNSTLTLSPVSFENEHSYLCTVTCGHKKLEKGIQVELYSFPRDPEIEMSGGLVNGSSVTVSCKVPSVYPLDRLEIELLKGETILENIEFLEDTDMKSLENKSLEMTFIPTIEDTGKALVCQAKLHIDDMEFEPKQRQSTQTLYVNVAPRDTTVLVSPSSILEEGSSVNMTCLSQGFPAPKILWSRQLPNGELQPLSENATLTLISTKMEDSGVYLCEGINQAGRSRKEVELIIQVTPKDIKLTAFPSESVKEGDTVIISCTCGNVPETWIILKKKAETGDTVLKSIDGAYTIRKAQLKDAGVYECESKNKVGSQLRSLTLDVQGRENNKDYFSPE
notes: domain: seven extracellular immunoglobulin-like domains; also called VCAM-I/Ig; VCAM-I/IgG; not shown: IgG1 portion
B6: CD11a I domain/IgG chimeric protein (Fc fusion, UniProt P20701 153-335, looked up)
chain: GNVDLVFLFDGSMSLQPDEFQKILDFMKDVMKKLSNTSYQFAAVQFSTSYKTEFDFSDYVKRKDPDALLKHVKHMLLLTNTFGAINYVATEVFREELGARPDATKVLIIITDGEATDSGNIDAAKDIIRYIIGIGKHFQTKESQETLHKFASKPASEFVKILDTFEKLKDLFTELQKKIYVIE
notes: domain: I domain; Negative control in the I domain ELISA; also called CD11a/IgG4 protein; not shown: IgG4 portion

Key:
[1] = biological target: T1, human αd/CD18 expressed on transfected cells (human, UniProt P05107 23-769); assay: adhesion of transfected CHO cells to immobilized CAM, crystal violet, A570
T1 construct: whole, on cells; Heterodimer on COS, CHO or JY transfectants; also called αd/CD18 transfectants; αd/CD18 CHO transfected cells

[2] = biological target: T1, human αd/CD18 expressed on transfected …; assay: summary of the adhesion and flow cytometry assays
[3] = biological target: T2, LFA-1 leucine zipper fusion protein (UniProt P20701 26-1090; P05107 23-700); assay: ELISA, CAM/Ig on captured integrin
T2 construct: also called LFA-1LZ; captured CD11a/CD18; not shown: leucine zipper strand

[4] = biological target: T1, human αd/CD18 expressed on transfected …; assay: adhesion of transfected CHO cells to immobilized CAM, crystal violet
[5] = biological target: T3, α4β1 expressed on CHO cells (UniProt P13612 34-1032; P05556 21-798, limits assumed); assay: as above
T3 construct: whole, on cells; also called VLA-4; α4 transformed CHO cells

[6] = biological target: T1, human αd/CD18 expressed on transfected …; assay: adhesion of αdβ2-transfected CHO cells to coated wells
[7] = biological target: T2, LFA-1 leucine zipper fusion protein; assay: ELISA, CAM/Ig on LFA-1LZ captured with TS2/4.1
[8] = biological target: B2; assay: ELISA, detection with anti-IgG4 HP6023
[9] = biological target: B3; assay: ELISA, detection with anti-IgG4 HP6023
[10] = biological target: B5; assay: ELISA, detection with anti-IgG4 HP6023

T3 sequence (P13612 34-1032 limits assumed, chain 1 of 2): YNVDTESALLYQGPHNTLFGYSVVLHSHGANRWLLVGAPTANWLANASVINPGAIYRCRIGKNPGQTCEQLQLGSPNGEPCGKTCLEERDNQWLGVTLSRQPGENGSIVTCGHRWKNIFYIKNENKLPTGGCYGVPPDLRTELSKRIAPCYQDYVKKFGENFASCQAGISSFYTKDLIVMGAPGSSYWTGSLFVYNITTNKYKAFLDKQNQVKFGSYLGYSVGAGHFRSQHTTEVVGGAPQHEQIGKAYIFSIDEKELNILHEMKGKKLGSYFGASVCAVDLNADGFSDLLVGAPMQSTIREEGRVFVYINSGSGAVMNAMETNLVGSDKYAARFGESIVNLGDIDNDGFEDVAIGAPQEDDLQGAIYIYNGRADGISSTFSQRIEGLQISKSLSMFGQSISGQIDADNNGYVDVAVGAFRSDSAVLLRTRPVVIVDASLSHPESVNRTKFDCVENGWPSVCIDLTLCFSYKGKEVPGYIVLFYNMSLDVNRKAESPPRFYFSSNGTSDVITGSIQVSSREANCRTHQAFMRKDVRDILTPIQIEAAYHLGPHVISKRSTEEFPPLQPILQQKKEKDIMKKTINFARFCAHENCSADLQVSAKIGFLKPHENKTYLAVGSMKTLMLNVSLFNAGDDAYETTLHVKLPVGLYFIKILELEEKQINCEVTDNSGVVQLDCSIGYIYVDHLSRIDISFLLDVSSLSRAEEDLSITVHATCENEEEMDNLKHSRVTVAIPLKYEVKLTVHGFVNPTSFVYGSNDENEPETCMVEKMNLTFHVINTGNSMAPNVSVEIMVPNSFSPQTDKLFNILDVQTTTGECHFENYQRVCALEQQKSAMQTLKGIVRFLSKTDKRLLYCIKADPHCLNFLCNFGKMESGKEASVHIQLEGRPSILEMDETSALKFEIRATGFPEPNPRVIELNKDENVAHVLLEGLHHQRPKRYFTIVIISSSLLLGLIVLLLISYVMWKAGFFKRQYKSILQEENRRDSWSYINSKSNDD
T3 sequence (P05556 21-798 limits assumed, chain 2 of 2): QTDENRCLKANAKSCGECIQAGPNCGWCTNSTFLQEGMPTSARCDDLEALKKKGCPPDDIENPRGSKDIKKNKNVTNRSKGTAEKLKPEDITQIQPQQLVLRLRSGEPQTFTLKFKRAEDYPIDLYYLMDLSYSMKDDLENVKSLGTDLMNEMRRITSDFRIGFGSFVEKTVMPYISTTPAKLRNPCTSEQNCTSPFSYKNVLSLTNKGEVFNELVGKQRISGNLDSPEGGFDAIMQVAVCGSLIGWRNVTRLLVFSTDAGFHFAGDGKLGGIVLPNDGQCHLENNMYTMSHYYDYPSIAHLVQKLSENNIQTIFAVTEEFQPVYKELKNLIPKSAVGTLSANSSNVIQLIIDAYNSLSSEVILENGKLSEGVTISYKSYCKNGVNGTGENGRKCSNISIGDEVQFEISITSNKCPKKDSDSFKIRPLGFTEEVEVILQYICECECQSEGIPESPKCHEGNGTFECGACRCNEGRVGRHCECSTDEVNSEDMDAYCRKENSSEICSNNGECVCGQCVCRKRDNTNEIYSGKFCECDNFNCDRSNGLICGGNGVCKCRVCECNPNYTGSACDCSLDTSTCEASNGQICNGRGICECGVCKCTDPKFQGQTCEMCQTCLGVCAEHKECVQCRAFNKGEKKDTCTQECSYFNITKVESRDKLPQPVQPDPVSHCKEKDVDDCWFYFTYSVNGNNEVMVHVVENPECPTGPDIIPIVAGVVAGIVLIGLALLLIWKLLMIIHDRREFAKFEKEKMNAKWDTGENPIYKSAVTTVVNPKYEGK

Binder: B1
binding result [1]: binds

Binder: B2
binding result [2]: binds

Binder: B3
fold above background [3]: ~15 fold | binding result [4]: no binding (tested: 0.5 µg/well) | binding result [5]: no binding (tested: 0.5 µg/well)

Binder: B4
binding result [6]: no binding (tested: 100 ng/ml coat)

Binder: B5
binding result [7]: no binding

Binder: B6
binding result [8]: no binding | binding result [9]: no binding | binding result [10]: no binding
